Results reported in patent publication US20250255960A1 (HRAIN BIOTECHNOLOGY, published 2025).
Blank lines part the entries; values can stand above or below the binder they belong to.

Assays:
Fc-labeled CD70 antigen [1] = biological target: T1, Fc-labeled CD70 antigen; test: flow cytometry: CAR-transduced T cells stained with Fc-labeled CD70 antigen (1:100) and secondary antibody PE-Fc; NT control 0.61
T1 construct: soluble antigen used at 1:100 to stain CAR-T cells; also called detected with the secondary antibody PE-Fc (axis label PE-Fc)
T1 sequence (P32970 whole entry, species assumed, looked up): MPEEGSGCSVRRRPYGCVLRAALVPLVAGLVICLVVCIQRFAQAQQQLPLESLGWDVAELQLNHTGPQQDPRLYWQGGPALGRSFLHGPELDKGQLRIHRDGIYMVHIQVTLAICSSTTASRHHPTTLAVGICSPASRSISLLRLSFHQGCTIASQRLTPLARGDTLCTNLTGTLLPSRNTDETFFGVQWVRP
Experimental: The CAR positive rate of the retrovirus-infected T lymphocytes were detected 72 hours after virus infection. For the chimeric antigen receptor group containing CD70-2A5-BBz, CD70-5C10-BBz, CD70-8A6-BBz, CD70-8B4-BBz, CD70-8E1-BBz, CD70-8F9-BBz, CD70-9D8-BBz, CD70-11C9-BBz and ARGX-BBz clone and the negative uninfected control group NT, 1×10⁶ cells from the above two groups respectively, were taken and centrifuged to remove the medium, the cells were washed once with PBS, and resuspended in 100 μL of the flow loading tube (BD). Fc-labeled CD70 antigen (1:100) was added and incubated for 30 minutes at 4° C. After washing the cells once with PBS, the secondary antibody PE-Fc was added according to the recommended ratio and incubated for 30 minutes in the dark. After the cells were washed once with PBS, the cells were resuspended in 200 μL of PBS and tested on the machine. The results of flow cytometric analysis of CAR-T positive rate are shown by FIG. 11.

Fc-labeled CD70 antigen [2] = biological target: T1, Fc-labeled CD70 antigen; test: flow cytometry: CAR-transduced T cells stained with Fc-labeled CD70 antigen (1:100) and secondary antibody PE-Fc; NT control 0.79
Experimental: The CAR positive rate of the retrovirus-infected T lymphocytes was detected 72 hours after virus infection. For the chimeric antigen receptor group containing CD70-2A5-BBz, CD70-8B4-BBz, CD70-9D8-BBz, CD70-11C9-BBz and ARGX-BBz clones and the negative uninfected control NT, 1×10⁶ cells from the above two groups respectively, were taken and centrifuged to remove the medium, washed once with PBS, and resuspended in 100 μL in a flow loading tube (BD). Fc-labeled CD70 antigen (1:100) was added and incubated for 30 minutes at 4° C. After washing the cells once with PBS, the secondary antibody PE-Fc was added according to the recommended ratio and incubated for 30 minutes in the dark. After the cells were washed once with PBS, the cells were resuspended in 200 μL of PBS and tested on the machine. The results of flow cytometric analysis of CAR-T positive rate are shown by FIG. 16.

[3] = biological target: T2, recombinant human CD27-his protein (human, UniProt P26842 21-192, limits assumed); test: ELISA; CD70-alFc coated in 4-fold dilution from 100 ng, 0.1 ug/mL CD27-his in solution, HRP anti-his-tag detection; coated CD70-alFc titrated, CD27-his fixed at 0.1 µg/mL
T2 construct: Bought; also called commercial CD27; recombinant human CD27 protein; not shown: his tag
T2 sequence (looked up): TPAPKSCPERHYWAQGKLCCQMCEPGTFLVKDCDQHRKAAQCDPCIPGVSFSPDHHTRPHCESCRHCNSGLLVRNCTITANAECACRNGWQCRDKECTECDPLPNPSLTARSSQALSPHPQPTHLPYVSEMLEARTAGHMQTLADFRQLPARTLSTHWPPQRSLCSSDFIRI
Experimental: ELISA activity identification of recombinant human CD70-alFc protein with commercial CD27: recombinant human CD70-alFc protein was coated in a 4-fold gradient dilution package in an ELISA plate, the first well was coated with 100 ng, and sequentially diluted 4-fold (100 uL/well), incubated at 4° C. overnight, washed 3 times with 200 uL PBST the next day, and blocked with 1% BSA/PBS for 1 hour. The blocking solution was removed, 100 μL 0.1 μg/mL recombinant human CD27-his protein was added to each well, and incubated at 37° C. for 1 hour. After washing 3 times with 200 μL PBST, horseradish peroxidase-labeled rabbit anti-his-tag antibody (100 μL per well) diluted 1:4000 was added, and incubated at 37° C. for 1 hour. After washing 3 times with 200 μL PBST, 100 μL TMB chromogen solution was added for development at 37° C. for 10 minutes, 100 μL 1M hydrochloric acid was added to stop the reaction, and the absorbance value at OD₄₅₀ was obtained. The analysis results are shown by FIG. 2 and Table 1.

CD70-9D8 VHH-huIgG1-Fc = biological target: T3, CD70-9D8 VHH-huIgG1-Fc (human, UniProt P01857-1 104-330 = IgG part, limits assumed); test: BLI (Octet K2); biotinylated CD70 on SA probe, VHH-huFc as analyte at 200, 100, 50, 25 nM
T3 construct: domain: IgG1-Fc; Recombinant VHH-huIgG1-Fc made in 293F cells; also called VHH-huFc antibody CD70-9D8
Experimental: (§1) The affinity of four VHH-huFc antibodies CD70-2A5, CD70-8B4, CD70-9D8, and CD70-11C9 to human CD70 was analyzed by Octet K2 molecular interaction analyzer. The SA probe was immobilized with 200 μL 100 nM biotinylated recombinant human CD70 protein at a height of […]. […] The results are shown by FIG. 8 and Table 4.

CD70-11C9 VHH-huIgG1-Fc = biological target: T4, CD70-11C9 VHH-huIgG1-Fc (human, UniProt P01857-1 104-330 = IgG part); test: as above
T4 construct: domain: IgG1-Fc; Recombinant VHH-huIgG1-Fc made in 293F cells; also called VHH-huFc antibody CD70-11C9
Experimental: as §1

CD70-2A5 VHH-huIgG1-Fc = biological target: T5, CD70-2A5 VHH-huIgG1-Fc (human, UniProt P01857-1 104-330 = IgG part, limits assumed); test: as above
T5 construct: domain: IgG1-Fc; Recombinant VHH-huIgG1-Fc made in 293F cells; also called VHH-huFc antibody CD70-2A5
Experimental: as §1

CD70-8B4 VHH-huIgG1-Fc = biological target: T6, CD70-8B4 VHH-huIgG1-Fc (human, UniProt P01857-1 104-330 = IgG part, limits assumed); test: as above
T6 construct: domain: IgG1-Fc; Recombinant VHH-huIgG1-Fc made in 293F cells; also called VHH-huFc antibody CD70-8B4
Experimental: as §1

B2: 8B4-BBz (other)
chimeric antigen receptor chain: EVQLVESGGGFVQPGGSLRLSCAASGFTLDGYAVAWFRQAPGKEREGVSCISSSDGSTYYIDSVQGRFTITRNNAKNTVYLQMNSLKPEDTAVYYCTTDVLTSCRSDRWLEVWGQGTLVTVSSTTTPAPRPPTPAPTIASQPLSLRPEACRPAAGGAVHTRGLDFACDIYIWAPLAGTCGVLLLSLVITLYCRFSVVKRGRKKLLYIFKQPFMRPVQTTQEEDGCSCRFPEEEEGGCELRVKFSRSADAPAYQQGQNQLYNELNLGRREEYDVLDKRRGRDPEMGGKPRRKNPQEGLYNELQKDKMAEAYSEIGMKGERRRGKGHDGLYQGLSTATKDTYDALHMQALPPR
notes: also called CD70-8B4-BBz
CD70 CAR+ (positive rate of the cells) (Fc-labeled CD70 antigen [1]): 72.1% | CD70 CAR+ (positive rate of the cells) (Fc-labeled CD70 antigen [2]): 78.3%

B3: 8F9-BBz (other)
chimeric antigen receptor chain: QLQLVESGGGLVQAGGSLRLSCAVSGRTSSTYAMAWFRQAPGKEREIVAVIGWSGGRTAYADSVKGRFTIAKDNAKNTVSLQMNSLKPEDTGVYYCAADSEQSSSSEGQAYGYEDWGQGTLVTVSSTTTPAPRPPTPAPTIASQPLSLRPEACRPAAGGAVHTRGLDFACDIYIWAPLAGTCGVLLLSLVITLYCRFSVVKRGRKKLLYIFKQPFMRPVQTTQEEDGCSCRFPEEEEGGCELRVKFSRSADAPAYQQGQNQLYNELNLGRREEYDVLDKRRGRDPEMGGKPRRKNPQEGLYNELQKDKMAEAYSEIGMKGERRRGKGHDGLYQGLSTATKDTYDALHMQALPPR
notes: also called CD70-8F9-BBz
CD70 CAR+ (positive rate of the cells) (Fc-labeled CD70 antigen [1]): 72.7%

B6: 2A5-BBz (other)
chimeric antigen receptor chain: EVQLVESGGGLVQAGGSLRLSCAASGSIFSINAMGWYRQAPGKQRELVAAITSGGSTNYADSVKGRFTISRDNAKNTVYLQMNSLKPEDTAVYYCNAGAGRAFPGDYWGQGTQVTVSSTTTPAPRPPTPAPTIASQPLSLRPEACRPAAGGAVHTRGLDFACDIYIWAPLAGTCGVLLLSLVITLYCRFSVVKRGRKKLLYIFKQPFMRPVQTTQEEDGCSCRFPEEEEGGCELRVKFSRSADAPAYQQGQNQLYNELNLGRREEYDVLDKRRGRDPEMGGKPRRKNPQEGLYNELQKDKMAEAYSEIGMKGERRRGKGHDGLYQGLSTATKDTYDALHMQALPPR
notes: also called CD70-2A5-BBz
CD70 CAR+ (positive rate of the cells) (Fc-labeled CD70 antigen [1]): 75.8% | CD70 CAR+ (positive rate of the cells) (Fc-labeled CD70 antigen [2]): 82.4%

B7: 5C10-BBz (other)
chimeric antigen receptor chain: QVQLVESGGGLVQAGGSLRLSCAASGSIFSMNAMGWYRQAPGKQRELVAAITSGGSTNYVDSVKGRFTISRDNAKNTVYLQMNSLKPEDTAVYYCNAGAGRAFPGDYWGQGTQVTVSSTTTPAPRPPTPAPTIASQPLSLRPEACRPAAGGAVHTRGLDFACDIYIWAPLAGTCGVLLLSLVITLYCRFSVVKRGRKKLLYIFKQPFMRPVQTTQEEDGCSCRFPEEEEGGCELRVKFSRSADAPAYQQGQNQLYNELNLGRREEYDVLDKRRGRDPEMGGKPRRKNPQEGLYNELQKDKMAEAYSEIGMKGERRRGKGHDGLYQGLSTATKDTYDALHMQALPPR
notes: also called CD70-5C10-BBz
CD70 CAR+ (positive rate of the cells) (Fc-labeled CD70 antigen [1]): 60%

Now from value to binder:

CD70 CAR+ (positive rate of the cells) (Fc-labeled CD70 antigen [1]): 51.3% | CD70 CAR+ (positive rate of the cells) (Fc-labeled CD70 antigen [2]): 70.9%
B1: 11C9-BBz (other)
chimeric antigen receptor chain: QVQLVESGGGLVQPGGSLRLSCAASGFTLDYYAVGWFRQAPGKEREGVSCISSSSDGSTYYVDSVLGRFTISRNNAENTVYLQMNSLKPEDTAVYYCSTDVLTSCRSDRYLEVWGQGTLVTVSGTTTPAPRPPTPAPTIASQPLSLRPEACRPAAGGAVHTRGLDFACDIYIWAPLAGTCGVLLLSLVITLYCRFSVVKRGRKKLLYIFKQPFMRPVQTTQEEDGCSCRFPEEEEGGCELRVKFSRSADAPAYQQGQNQLYNELNLGRREEYDVLDKRRGRDPEMGGKPRRKNPQEGLYNELQKDKMAEAYSEIGMKGERRRGKGHDGLYQGLSTATKDTYDALHMQALPPR
notes: also called CD70-11C9-BBz

EC50 [3]: 8.69 ng/mL
B4: recombinant human CD70-alFc protein (Fc fusion)
chain: QRFAQAQQQLPLESLGWDVAELQLNHTGPQQDPRLYWQGGPALGRSFLHGPELDKGQLRIHRDGIYMVHIQVTLAICSSTTASRHHPTTLAVGICSPASRSISLLRLSFHQGCTIASQRLTPLARGDTLCTNLTGTLLPSRNTDETFFGVQWVRPELKTPQPQSQPECRCPKCPAPELLGGPSVFIFPPKPKDVLSISGRPEVTCVVVDVGQEDPEVSFNWYIDGAEVRTANTKPKEEQFNSTYRVVSVLPIRHQDWLTGKEFKCKVNNKALPAPIERTISKAKGQTREPQVYALAPHREELAKDTVSVTCLVKDFYPVDINIEWQRNGQPESEGTYATTPPQLDNDGTYFLYSKLSVGKNTWQRGETFTCVVMHEALPNHYTQKSITQSSGK
notes: range 39-193; Made in 293T cells; also called CD70-alIgG1Fc fusion protein; recombinant human CD70 protein

CD70 CAR+ (positive rate of the cells) (Fc-labeled CD70 antigen [1]): 74.1% | CD70 CAR+ (positive rate of the cells) (Fc-labeled CD70 antigen [2]): 83%
B5: 9D8-BBz (other)
chimeric antigen receptor chain: QLQLVESGGGLVQPGGSLRLSCAVSGRTSSTYAMAWFRQAPGKEREIVAVITWSGGRTAYADSVKGRFTIAKDSAKNTVYLQMNSLKPEDTAVYYCAADSEVSSSSEGQYGYESWGQGTQVTVSSTTTPAPRPPTPAPTIASQPLSLRPEACRPAAGGAVHTRGLDFACDIYIWAPLAGTCGVLLLSLVITLYCRFSVVKRGRKKLLYIFKQPFMRPVQTTQEEDGCSCRFPEEEEGGCELRVKFSRSADAPAYQQGQNQLYNELNLGRREEYDVLDKRRGRDPEMGGKPRRKNPQEGLYNELQKDKMAEAYSEIGMKGERRRGKGHDGLYQGLSTATKDTYDALHMQALPPR
notes: also called CD70-9D8-BBz

Kd (CD70-9D8 VHH-huIgG1-Fc): 1.83 nM | koff (CD70-9D8 VHH-huIgG1-Fc): 0.000235 s⁻¹ | kon (CD70-9D8 VHH-huIgG1-Fc): 129000 M⁻¹ s⁻¹ | Kd (CD70-11C9 VHH-huIgG1-Fc): < 1 pM | koff (CD70-11C9 VHH-huIgG1-Fc): < 1e-07 s⁻¹ | kon (CD70-11C9 VHH-huIgG1-Fc): 264000 M⁻¹ s⁻¹ | Kd (CD70-2A5 VHH-huIgG1-Fc): < 1 pM | koff (CD70-2A5 VHH-huIgG1-Fc): < 1e-07 s⁻¹ | kon (CD70-2A5 VHH-huIgG1-Fc): 36700 M⁻¹ s⁻¹ | Kd (CD70-8B4 VHH-huIgG1-Fc): < 1 pM | koff (CD70-8B4 VHH-huIgG1-Fc): < 1e-07 s⁻¹ | kon (CD70-8B4 VHH-huIgG1-Fc): 45500 M⁻¹ s⁻¹
B8: biotinylated recombinant human CD70 protein (ligand, UniProt P32970 39-193, looked up)
chain: QRFAQAQQQLPLESLGWDVAELQLNHTGPQQDPRLYWQGGPALGRSFLHGPELDKGQLRIHRDGIYMVHIQVTLAICSSTTASRHHPTTLAVGICSPASRSISLLRLSFHQGCTIASQRLTPLARGDTLCTNLTGTLLPSRNTDETFFGVQWVRP
modifications: biotin on the avi-tag
notes: also called biotinylated CD70 protein; biotinylated CD70 recombinant protein; not shown: avi-tag (and any other tag or Fc)
